In paper PMC3834253, “Attenuation of VEGFR-2 Expression by sFlt-1 and Low Oxygen in Human Placenta” (PLoS ONE, 2013):

Biological target: T1, Vascular endothelial growth factor receptor 2 (VEGFR-2) (human (endogenous in placenta), UniProt P35968 20-1356)
T1 construct: VEGF receptor-2 (VEGFR-2, also known as KDR), human, endogenous in placental tissue; precipitated with a monoclonal VEGFR-2 antibody (Cell Signaling Technology); Endogenous receptor in frozen placental tissue lysates; bait of the co-immunoprecipitation; also called VEGF receptor-2; KDR; source: endogenous, human placental tissue lysate
Assay: co-IP; human placental tissue lysates (8, 12 and 35 weeks of gestation; preeclamptic placentae), 500 ug protein, precleared with Protein-A Agarose, precipitated with 1 ug monoclonal VEGFR-2 antibody overnight at 4 C, washed 3 times in ice cold RIPA buffer, blotted for sFlt-1
Settings: partners not purified

T1 sequence (P35968 20-1356): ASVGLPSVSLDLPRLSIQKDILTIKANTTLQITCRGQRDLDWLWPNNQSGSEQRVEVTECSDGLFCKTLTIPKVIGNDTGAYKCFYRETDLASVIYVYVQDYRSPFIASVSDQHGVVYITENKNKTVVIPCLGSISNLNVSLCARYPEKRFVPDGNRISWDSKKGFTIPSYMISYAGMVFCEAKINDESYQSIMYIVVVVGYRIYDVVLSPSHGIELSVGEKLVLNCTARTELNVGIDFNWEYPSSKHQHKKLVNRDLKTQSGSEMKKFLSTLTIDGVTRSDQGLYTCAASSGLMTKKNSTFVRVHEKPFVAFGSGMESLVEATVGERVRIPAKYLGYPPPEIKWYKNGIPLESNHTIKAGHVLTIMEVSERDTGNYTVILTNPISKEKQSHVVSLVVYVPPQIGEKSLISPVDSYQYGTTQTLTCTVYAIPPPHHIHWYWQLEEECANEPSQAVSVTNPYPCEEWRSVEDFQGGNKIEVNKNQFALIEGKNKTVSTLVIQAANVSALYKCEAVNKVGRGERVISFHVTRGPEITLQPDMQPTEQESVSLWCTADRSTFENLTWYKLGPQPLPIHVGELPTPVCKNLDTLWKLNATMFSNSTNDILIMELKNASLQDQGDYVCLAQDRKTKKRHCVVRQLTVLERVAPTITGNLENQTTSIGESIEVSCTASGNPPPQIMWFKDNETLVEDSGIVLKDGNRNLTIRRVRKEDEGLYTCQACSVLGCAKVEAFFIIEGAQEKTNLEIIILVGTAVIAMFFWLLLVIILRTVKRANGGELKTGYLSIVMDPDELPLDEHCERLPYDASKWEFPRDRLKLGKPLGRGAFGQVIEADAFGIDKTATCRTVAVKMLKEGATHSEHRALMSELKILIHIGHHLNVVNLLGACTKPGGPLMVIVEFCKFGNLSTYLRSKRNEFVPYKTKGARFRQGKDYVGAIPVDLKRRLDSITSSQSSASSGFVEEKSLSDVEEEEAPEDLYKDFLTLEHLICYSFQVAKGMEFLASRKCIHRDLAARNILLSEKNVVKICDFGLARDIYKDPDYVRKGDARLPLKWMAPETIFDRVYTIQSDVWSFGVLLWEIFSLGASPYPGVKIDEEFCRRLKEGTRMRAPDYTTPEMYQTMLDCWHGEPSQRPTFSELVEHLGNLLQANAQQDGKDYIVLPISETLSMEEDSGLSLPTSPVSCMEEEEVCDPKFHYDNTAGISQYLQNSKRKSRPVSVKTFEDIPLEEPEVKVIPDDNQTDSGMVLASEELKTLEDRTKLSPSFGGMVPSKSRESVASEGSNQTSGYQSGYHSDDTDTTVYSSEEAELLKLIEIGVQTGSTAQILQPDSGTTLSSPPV

B1: soluble VEGF receptor-1 (sFlt-1), 105 kDa species (sFlt-13) (natural protein, human (endogenous in placenta), UniProt P17948-2 27-687, looked up)
chain: SKLKDPELSLKGTQHIMQAGQTLHLQCRGEAAHKWSLPEMVSKESERLSITKSACGRNGKQFCSTLTLNTAQANHTGFYSCKYLAVPTSKKKETESAIYIFISDTGRPFVEMYSEIPEIIHMTEGRELVIPCRVTSPNITVTLKKFPLDTLIPDGKRIIWDSRKGFIISNATYKEIGLLTCEATVNGHLYKTNYLTHRQTNTIIDVQISTPRPVKLLRGHTLVLNCTATTPLNTRVQMTWSYPDEKNKRASVRRRIDQSNSHANIFYSVLTIDKMQNKDKGLYTCRVRSGPSFKSVNTSVHIYDKAFITVKHRKQQVLETVAGKRSYRLSMKVKAFPSPEVVWLKDGLPATEKSARYLTRGYSLIIKDVTEEDAGNYTILLSIKQSNVFKNLTATLIVNVKPQIYEKAVSSFPDPALYPLGSRQILTCTAYGIPQPTIKWFWHPCNHNHSEARCDFCSNNEESFILDADSNMGNRIESITQRMAIIEGKNKMASTLVVADSRISGIYICIASNKVGTVGRNISFYITDVPNGFHVNLEKMPTEGEDLKLSCTVNKFLYRDVTWILLRTVNNRTMHYSISKQKMAITKEHSITLNLTIMNVSLQDSGTYACRARNVYTGEEILQKKEITIRGEHCNKKAVFSRISKFKSTRNDCTTQSNVKH
notes: sFlt-1, truncated soluble splice variant of VEGFR-1 (six extracellular IgG like domains with a unique C-terminus), human; isoform assigned by the authors from the band size; Detected by blot with an sFlt-1 antibody (AF321, R&D Systems) in VEGFR-2 immunoprecipitates; also called soluble VEGFR-1; source: endogenous, human placental tissue lysate
  fold co-immunoprecipitated sFlt-1 (densitometry), PE over PTC placentae: 5.98 fold
